{"source": "patent US20250002562A1", "about": "(Scripps Research, published 2025)", "key": {"[1]": {"molecular_target": "T1, Omicron (B.1.1.529) RBD antigen (Genscript) (SARS-CoV2 Omicron variant (B.1.1.529), UniProt P0DTC2 319-541)", "T1 construct": "domain: RBD; also called Omicron RBD; Omicron variant RBD", "experiment": "ELISA on RBD antigen, human IgG at 1 µg/mL, O.D. 450 nm"}, "[2]": {"molecular_target": "T2, SARS-CoV-2-B.1.617.2 (Delta variant) RBD (SARS-CoV-2 B.1.617.2 (Delta variant), UniProt P0DTC2 319-541)", "T2 construct": "domain: RBD; also called Delta RBD; Delta antigen", "experiment": "ELISA on RBD antigen, human IgG at 1 µg/mL, O.D. 450 nm"}, "[3]": {"molecular_target": "T2, SARS-CoV-2-B.1.617.2 (Delta variant) RBD", "experiment": "ELISA of scFv from individual colonies on RBD antigens"}}, "data": [{"binder": "SKAI-DS64 (antibody, V domains shown, also called SKAI-DS64 human IgG antibody) VH: EVQLLESGGGLVQPGGSLRLSCAASGFTFSDYSMSWVRQAPGKGLEWVSGIYHSDGSKYYADSVKGRFTISRDNSKNTLYLQMNSLRAEDTAVYYCARFDPVFDYWGQGTLVTV VL: QSVLTQPPSASGTPGQRVTISCSGSSSNIGSNAVSWYQQLPGTAPKLLIYDNNHRPSGVPDRFSGSKSGTSASLAISGLRSEDEADYYCGSWDDSLNAYVFGGGTKLTVL", "values": [{"measurement": "binding result", "setting": "[1]", "result": "no binding (tested: 1 µg/mL)"}, {"measurement": "binding result", "setting": "[2]", "result": "binds"}]}, {"binder": "SKAI-DS7 scFv (scFv, V domains shown) VH: EVQLLESGGGLVQTGGSLRLSCAASGFTFSDYAMSWVRQAPGKGLEWVSGIYHSGGNTYYADSVKGRFTISRDNSKNTLYLQMNSLRAEDTAVYYCARDAGPFDYWGQGTLVAV VL: QSVLTQPPSASGTPGQRVTISCSGSSSNIGSNAVSWYQQLPGTAPKLLIYDNNHRPSGVPDRFSGSKSGTSASLAISGLRSEDEADYYCGSWDDSLNAYVFGGGTKLTVL", "values": [{"measurement": "binding result", "setting": "[3]", "result": "binds"}]}, {"binder": "SKAI-DS1 (antibody, V domains shown, also called SKAI-DS1 human IgG antibody) VH: EVQLLESGGGLVQTGGSLRLSCAASGFTFSDYAMSWVRQAPGKGLEWVSWIYSNDGNKYYADSVKGRFTISRDNSKNTLYLQMNSLRAEDTAVYYCARFPVPSWRNTWSSYDAMDVWGQGTLVTV VL: QSVLTQPPSASGTPGRRVTISCTGSSSNIGSNYVSWYQQLPGTAPKLLIYSDSNRPSGVPDRFSGSKSGTSASLAISGLRSEDEADYYCGTWDASLSGYVFGGGTKLTVL", "values": [{"measurement": "binding result", "setting": "[1]", "result": "no binding (tested: 1 µg/mL)"}, {"measurement": "binding result", "setting": "[2]", "result": "binds"}]}, {"binder": "SKAI-DS66 (antibody, V domains shown, also called SKAI-DS66 human IgG antibody) VH: EVQLLESGGGLVQPGGSLRLSCAASGFTFSDYAMSWVRQAPGKGLEWVSAIYPGGGSTYYADSVKGRFTISRDNSKNTLYLQMNSLRAEDTAVYYCARNLFGFDYWGQGTLVTV VL: QSVLTQPPSASGTPGQRVTISCTGSSSNIGSNAVYWYQQLPGTAPKLLIYDDSNRPSGVPDRFSGSKSGTSASLAISGLRSEDEADYYCGSWDDSLSAYVFGGGTKLTVL", "values": [{"measurement": "binding result", "setting": "[1]", "result": "no binding (tested: 1 µg/mL)"}, {"measurement": "binding result", "setting": "[2]", "result": "binds"}]}, {"binder": "SKAI-DS15 (antibody, V domains shown, also called SKAI-DS15 human IgG antibody) VH: EVQLLESGGGLVQPGGSLRLSCAASGFTFSDYDMSWVRQAPGKGLEWVSMIYSGSSSKYYADSVKGRFTISRDNSKNTLYLQMNSLRAEDTAVYYCARVTGTCHSGSCYYSDAMDVWGQGTLVTV VL: QSVLTQPPSASGTPGQRVTISCSGSSSNIGSNDVNWYQQLPGTAPKLLIYDDSNRPSGVPDRFSGSKSGTSASLAISGLRSEDEADYYCGAWDDSLSGYVFGGGTKLTVL", "values": [{"measurement": "binding result", "setting": "[1]", "result": "no binding (tested: 1 µg/mL)"}, {"measurement": "binding result", "setting": "[2]", "result": "no binding (tested: 1 µg/mL)"}]}, {"binder": "SKAI-DS1 scFv (scFv, V domains shown) VH: EVQLLESGGGLVQTGGSLRLSCAASGFTFSDYAMSWVRQAPGKGLEWVSWIYSNDGNKYYADSVKGRFTISRDNSKNTLYLQMNSLRAEDTAVYYCARFPVPSWRNTWSSYDAMDVWGQGTLVTV VL: QSVLTQPPSASGTPGRRVTISCTGSSSNIGSNYVSWYQQLPGTAPKLLIYSDSNRPSGVPDRFSGSKSGTSASLAISGLRSEDEADYYCGTWDASLSGYVFGGGTKLTVL", "values": [{"measurement": "binding result", "setting": "[3]", "result": "binds"}]}, {"binder": "SKAI-DS16 (antibody, V domains shown, also called SKAI-DS16 human IgG antibody) VH: EVQLLESGGGLVQPGGSLRLSCAASGFTFSDYSMSWVRQAPGKGLEWVSWIYPDNGNTYYADSVKGRFTISRDNSKNTLYLQMNSLRAEDTAVYYCAKPKTSFDYWGQGTLVTV VL: QSVLTQPPSASGTPGQRVTISCSGSSSNIGSNYVYWYQQLPGTAPKLLIYDDSNRPSGVPGRFSGSKSGTSASLAISGLRSEDEADYYCGTWDYSLNGYVFGGGTKLTVL", "values": [{"measurement": "binding result", "setting": "[1]", "result": "no binding (tested: 1 µg/mL)"}, {"measurement": "binding result", "setting": "[2]", "result": "no binding (tested: 1 µg/mL)"}]}, {"binder": "SKAI-DS3 (antibody, V domains shown, also called SKAI-DS3 human IgG antibody) VH: EVQLLESGGGLVQPGGSLRLSCAASGFTFSDYSMSWVRQAPGKGLEWVSAISSDSSSTYYADSVKGRFTISRDNSENTLYLQMNSLRAEDTAVYYCAKAILRCIPLGCYYADAMDVWGQGTLVTV VL: QSVLTQPPSASGTPGQRVTISCTGSSSNIGSNDVTWYQQLPGTAPKLLIYADSKRPSGVPDRFSGSKSGTSASLAISGLRSEDEADYYCGAWDYSLSAYVFGGGTKLTVL", "values": [{"measurement": "binding result", "setting": "[1]", "result": "no binding (tested: 1 µg/mL)"}, {"measurement": "binding result", "setting": "[2]", "result": "no binding (tested: 1 µg/mL)"}]}]}
